For the test, the target named is T1, sTF (soluble human tissue factor 1-219) (human).
T1 chain: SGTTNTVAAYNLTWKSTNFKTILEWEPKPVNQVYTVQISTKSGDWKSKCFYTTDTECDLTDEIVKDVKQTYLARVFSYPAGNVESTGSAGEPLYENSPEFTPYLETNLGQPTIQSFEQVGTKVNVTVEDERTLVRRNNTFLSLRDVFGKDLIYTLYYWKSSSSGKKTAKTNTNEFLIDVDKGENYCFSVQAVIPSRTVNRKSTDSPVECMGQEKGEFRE
The experiment in a line: SPR. In general terms: In SPR one partner is held on a chip, and binding of the other changes the refractive index at the surface.

B1: 5G6 (antibody, V domains shown)
VH: EVLLQQSGPELVKPGASVKIPCKASGYTFTEYNMDWVKQSHGKSLEWIGDINPNNGNTIYNQKFKGKATLTVDKSSTTAYLELRSLTSEDTAVYFCARDHDYYFDFWGQGTTLTVSS
VL: DIQMTQTPASQSASLGESVTITCLASQTIDTWLAWYQQKPGKSPQLLIYAATSLADGVPSRFSGSGSGTKFSFKISSLQAEDFVSYYCQQPYSSPYTFGGGTKLELKR
As a reminder, the Kd is the equilibrium constant for the complex coming apart. A high value points to weaker binding. As for B1, binding was characterised by a dissociation constant (Kd) of 1.7 nM.

The values are drawn from patent US7435413 (dated 2008).
